From paper PMC10127277

Biological target: human RNF128 (GRAIL) extracellular domain (human) (UniProt Q8TEB7)
Assay: SPR; Biacore T100; biotinylated ECD (ligand) captured on a streptavidin (SA) series S chip, ~100-200 RU; non-biotinylated VHH as analyte in HBS-P+ buffer, twofold dilutions from 500 nM (RNF128 E2, RNF130 D1) or 1000 nM (RNF43 C8); injection 60 s at 30 ul/min, dissociation 240 s; regeneration 1 x 10 sec glycine pH 2.5; 1:1 Langmuir model or equilibrium

Sequence of human RNF128 (GRAIL) extracellular domain (human) (Q8TEB7 39-428): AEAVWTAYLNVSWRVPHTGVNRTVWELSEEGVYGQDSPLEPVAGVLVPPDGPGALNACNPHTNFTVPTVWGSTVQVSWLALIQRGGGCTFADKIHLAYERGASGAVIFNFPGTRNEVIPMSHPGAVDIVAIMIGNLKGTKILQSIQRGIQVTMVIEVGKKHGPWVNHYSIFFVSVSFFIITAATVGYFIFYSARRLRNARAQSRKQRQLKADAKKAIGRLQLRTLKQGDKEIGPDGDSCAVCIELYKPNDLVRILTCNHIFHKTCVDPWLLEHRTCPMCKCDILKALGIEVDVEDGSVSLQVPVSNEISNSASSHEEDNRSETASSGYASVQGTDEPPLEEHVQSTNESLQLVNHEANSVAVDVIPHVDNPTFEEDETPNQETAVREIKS

B1: RNF128-E2 nanobody (VHH)
VHH: QVQLQESGGGLVQAGGSLRLSCAASGSISGGKGMGWYRQAPGKEREFVAAIGSGAITYYADSVKGRFTISRDNAKNTVYLQMNSLKPEDTAVYYCAVYTTALDEYPYWGQGTQVTVSS
B1 was tested, and the Kd was 10 nM.
